From patent publication US20250177546A1 (SANYOU BIOPHARMACEUTICALS, published 2025)

How the values were obtained:
[1] = biological target: T1, huROR1-His (human ROR1 ECD AA30-406 with C-terminal His tag, made in house) (human, UniProt Q01973 30-406); assay: Gator (BLI) Advanced Kinetics; antibody 30 nM, huROR1-His 480-7.5 nM
T1 construct: range 30-406; Expressed in HEK293; also called antigen protein huROR1-His; not shown: C-terminal His tag
Procedure: First, Q buffer was prepared with PBS (10 mM pH7.4) (IgG-free, purchased from Jackson ImmunoResearch Lab)+0.02% Tween 20 (purchased from thermo)+0.2% BSA (purchased from source culture), and the stock solution of the test antibody was diluted with the prepared Q buffer to a working solution with a final concentration of 30 nM, the stock solution of the antigen protein huROR1-His was prepared with Q buffer into a working solution with multiple dilutions (480, 240, 120, 60, 30, 15, 7.5 nM), and detection and analysis was then performed with Gator instrument and its accompanying software, selecting the Advanced Kinetics experimental mode is used.

[2] = biological target: T1, huROR1-His (human ROR1 ECD AA30-406 …); assay: ELISA, huROR1-His coated at 2 µg/mL, goat anti-human Fc-HRP, OD450
Procedure: (§1) 96-well ELISA plate was coated with 2 μg/mL huROR1-His (30 μL/well) at 4° C. overnight. The next day, the plate was washed three times with PBST and then blocked with 5% skim milk for 2 h. […] After washing with PBST for three times, the secondary antibody Goat-anti-human Fc-HRP (abcam, ab97225) was added and incubated for 1 h. After incubation, the plate was washed with PBST for 6 times and TMB (SurModics, TMBS-1000-01) was added for color development. According to the color development results, 2 M HCl was added to terminate the reaction, and the data were read at OD450 using a microplate reader (Molecular Devices, SpecterMax 190).

[3] = biological target: T2, huROR2-His (human ROR2 ECD AA34-403 with C-terminal His tag) (human, UniProt Q01974 34-403); assay: ELISA, huROR2-His coated at 2 µg/mL, goat anti-human Fc-HRP, OD450
T2 construct: range 34-403; Expressed in HEK293; also called human ROR2 antigen protein; not shown: C-terminal His tag
T2 sequence (Q01974 34-403 limits assumed): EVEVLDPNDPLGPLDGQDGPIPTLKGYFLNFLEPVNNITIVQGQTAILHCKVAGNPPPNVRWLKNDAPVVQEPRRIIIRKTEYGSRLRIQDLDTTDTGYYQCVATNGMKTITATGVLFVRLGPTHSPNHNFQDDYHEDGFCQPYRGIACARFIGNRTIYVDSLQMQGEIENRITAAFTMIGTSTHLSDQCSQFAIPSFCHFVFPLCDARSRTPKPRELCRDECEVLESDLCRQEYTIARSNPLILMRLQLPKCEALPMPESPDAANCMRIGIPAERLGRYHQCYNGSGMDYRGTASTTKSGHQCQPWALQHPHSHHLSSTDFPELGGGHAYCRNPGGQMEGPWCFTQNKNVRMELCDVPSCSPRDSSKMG
Procedure: as §1, with “huROR2-His” for “huROR1-His”, “TMBS-1000-0)” for “TMBS-1000-01)”

[4] = biological target: T3, MusROR1-His (mouse ROR1 ECD AA30-406 with C-terminal His tag) (mouse, UniProt Q9Z139 30-406); assay: ELISA, MusROR1-His coated at 2 µg/mL, goat anti-human Fc-HRP, OD450
T3 construct: range 30-406; Expressed in HEK293; also called mouse ROR1 antigen protein; not shown: C-terminal His tag
T3 sequence (Q9Z139 30-406 limits assumed): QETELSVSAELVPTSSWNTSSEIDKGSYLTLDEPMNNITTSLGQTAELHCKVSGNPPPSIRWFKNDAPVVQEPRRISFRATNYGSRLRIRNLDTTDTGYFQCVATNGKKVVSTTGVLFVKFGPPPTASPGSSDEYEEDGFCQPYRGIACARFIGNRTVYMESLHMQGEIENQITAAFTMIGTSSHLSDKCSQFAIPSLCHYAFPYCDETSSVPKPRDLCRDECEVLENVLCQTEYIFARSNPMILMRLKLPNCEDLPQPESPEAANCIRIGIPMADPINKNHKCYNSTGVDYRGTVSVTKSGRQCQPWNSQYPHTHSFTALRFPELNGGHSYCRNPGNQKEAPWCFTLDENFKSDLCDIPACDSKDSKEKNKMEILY
Procedure: as §1, with “MusROR1-His” for “huROR1-His”

[5] = biological target: T4, human ROR1 on cells (full-length human ROR1 on huROR1-HEK293 cells; human ROR1 on A549 and HT-29 tumor cells) (human, UniProt Q01973 30-937); assay: flow cytometry (FACS) on A549 tumor cells, anti-human IgG-Fc secondary antibody, MFI
T4 construct: whole, on cells; also called hROR1-HEK293T; A549 tumor cells
T4 sequence (Q01973 30-937): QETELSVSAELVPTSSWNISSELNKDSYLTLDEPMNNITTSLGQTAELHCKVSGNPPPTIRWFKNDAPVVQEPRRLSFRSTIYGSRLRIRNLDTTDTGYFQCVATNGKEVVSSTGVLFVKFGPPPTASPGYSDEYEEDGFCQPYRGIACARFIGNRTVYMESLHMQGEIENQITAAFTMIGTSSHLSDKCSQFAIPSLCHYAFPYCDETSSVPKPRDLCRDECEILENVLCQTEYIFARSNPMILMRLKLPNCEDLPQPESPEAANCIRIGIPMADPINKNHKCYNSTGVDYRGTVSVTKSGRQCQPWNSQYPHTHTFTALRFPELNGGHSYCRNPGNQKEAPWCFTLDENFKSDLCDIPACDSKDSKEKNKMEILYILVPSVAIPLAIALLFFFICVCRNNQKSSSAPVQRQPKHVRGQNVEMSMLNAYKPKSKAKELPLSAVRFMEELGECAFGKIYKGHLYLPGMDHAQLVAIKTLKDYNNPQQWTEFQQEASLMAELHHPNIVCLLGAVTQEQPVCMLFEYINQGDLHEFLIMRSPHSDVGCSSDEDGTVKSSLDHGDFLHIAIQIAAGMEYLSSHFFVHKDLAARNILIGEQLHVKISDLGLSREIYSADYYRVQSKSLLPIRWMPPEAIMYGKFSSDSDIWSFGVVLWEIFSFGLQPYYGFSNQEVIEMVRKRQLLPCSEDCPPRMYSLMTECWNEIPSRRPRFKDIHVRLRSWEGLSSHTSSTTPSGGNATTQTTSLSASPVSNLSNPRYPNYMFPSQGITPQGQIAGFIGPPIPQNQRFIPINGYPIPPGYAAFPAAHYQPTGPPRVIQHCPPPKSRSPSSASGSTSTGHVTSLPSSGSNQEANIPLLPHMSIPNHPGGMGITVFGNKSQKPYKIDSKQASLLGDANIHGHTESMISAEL
Procedure: (§2) In this example, the binding activity of the antibody was evaluated using two types of cells, huROR1-HEK293 cells over-expressing human ROR1 and A549 tumor cells.
(§3) The specific method was as follows: huROR1-HEK293 cells or A549 cells in the logarithmic growth phase were prepared to a single-cell suspension, the density was adjusted to 1×10⁶ cells/mL, then 100 μL/well cells were added to a 96-well round-bottom plate, centrifuged at 4° C., 300 g, and the supernatant was removed. […] After the incubation, the cell mixture was washed three times and then 100 μL of 1:300 diluted secondary antibody Goat F(ab′)₂ Anti-Human IgG-Fc (abcam, ab98596) was added. The mixture was incubated at 4° C. in the dark for 30 min. After washing three times, the cells were detected by flow cytometry (Beckman, CytoFLEX AOO-1-1102).

[6] = biological target: T4, human ROR1 on cells (full-length human …); assay: flow cytometry (FACS) on huROR1-HEK293 cells, anti-human IgG-Fc secondary antibody, MFI
Procedure: as §2, §3

T1 sequence (Q01973 30-406 limits assumed): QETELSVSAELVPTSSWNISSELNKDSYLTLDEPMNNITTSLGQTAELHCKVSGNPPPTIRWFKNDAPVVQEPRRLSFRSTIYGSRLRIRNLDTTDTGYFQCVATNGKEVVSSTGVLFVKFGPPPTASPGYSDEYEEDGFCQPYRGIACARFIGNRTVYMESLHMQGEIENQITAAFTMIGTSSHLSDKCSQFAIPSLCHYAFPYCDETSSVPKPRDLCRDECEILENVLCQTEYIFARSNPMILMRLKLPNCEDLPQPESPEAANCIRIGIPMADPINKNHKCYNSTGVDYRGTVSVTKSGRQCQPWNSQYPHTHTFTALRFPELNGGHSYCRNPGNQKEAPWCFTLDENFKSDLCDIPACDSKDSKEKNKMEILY

Row | Binder | Kd [1] [nM] | koff [1] [s⁻¹] | kon [1] [M⁻¹ s⁻¹] | EC50 [2] [µg/mL] | binding result [3] | EC50 (read off the curve) [4] [µg/mL] | EC50 (read off the curve) [5] [µg/mL] | EC50 (read off the curve) [6] [µg/mL] | binding result [4]
1 | B32 (chimeric antibody) (antibody, human IgG1, kappa, V domains shown, ExpiCHO expression) VH: EVKLMESGGGLVKPGGSLKLSCAASGFAFSSYAMSWVRQTPDKRLEWVASINRDVTTYYPDSMKGRFTISRDNARNILYLQMSSLRSEDTAMYYCARGYYYGGGPYWHFDVWGAGTTVTVSS VL: DIQITQSPSSMYASLGERVTITCKASQDINSYLTWFQQKPGKSPKTLIYRANRLVDGVPSRFSGSGSGQDYSLTISSLEYEDMGIYYCLQFDEFPYTFGGGTKLEIKR | 1.25 | 0.000377 | 301000 | 0.00575 | no binding (tested: 1 µg/mL) | ~0.04 | ~0.02 | ~0.1 | –
2 | B34 (chimeric antibody) (antibody, human IgG1, kappa, V domains shown, ExpiCHO expression) VH: EVQLVESGGGLVQPKGSLKLSCAASGFTFSRYAMSWVRQTPEKRLEWVASISTGGSPYYPDSVKGRFTISRDNARNILYLQMSSLKSEDTAMYYCARGYYYNSSPHWYFAVWGAGTSVTVSS VL: DIQMTQSPSSLSASLGERVTITCKASQDINSYLSWFQQKPGKSPKTLIYRANRLVDGVPSRFSGSGSGQDYSLTISSLEYEDMGIYYCLQYDEFPYTFGGGTKLEIKR | 2.52 | 0.000609 | 241000 | 0.00628 | no binding (tested: 1 µg/mL) | – | ~0.04 | ~0.2 | no binding (tested: 1 µg/mL)
3 | B39 (chimeric antibody) (antibody, human IgG1, kappa, V domains shown, ExpiCHO expression) VH: EVKLVESGGGLVKPGGSLKLSCAASGFTFSTYAMSWVRQTPEKRLEWVASISTGASTYYPDSVKGRFTISRDNARNILYLQMSSLRSEDTAMYYCAREETTTAALYYAMDYWGQGTSVTVSS VL: DIKITQSPSSMYASLGERVTITCKASQDINNYLSWFQQKPGKSPKTLIYRANRLVDGVPSRFSGSGSGQDYSLTISSLEYEDMGIYYCLQFDEFPYTFGGGTKLEIKR | 4.43 | 0.00135 | 304000 | 0.00552 | no binding (tested: 1 µg/mL) | – | ~0.01 | ~0.1 | no binding (tested: 1 µg/mL)
4 | B74 (chimeric antibody) (antibody, human IgG1, kappa, V domains shown, ExpiCHO expression) VH: EVMLVESGGNLVKPGGSLKLSCAASGFTFSIYAMSWVRQTPEKRLEWVASISGGGTAYYPDSVKGRFTISRDNARNILYLQMSSLRSEDTAIYYCARGYYYGGSPYWHFDVWGAGTTVTVSS VL: DIKMTQSPSSMYASLGERVTITCKASQDINSYLSWFQQKPGKSPKTLIYRANRLVDGVPSRFSGSGSGQDYSLTISSLEYEDIGIYYCLQIDEFPYTFGGGTKLEIKR | 1.44 | 0.000464 | 323000 | 0.00513 | no binding (tested: 1 µg/mL) | – | ~0.01 | ~0.2 | no binding (tested: 1 µg/mL)
5 | C38 (chimeric antibody) (antibody, human IgG1, kappa, V domains shown, ExpiCHO expression) VH: EVMLVESGGGLVRPGGSLKLSCAASGFTFSSYAMSWVRQTPDKRLEWVASINRDVTTYYPDSVKGRFTISRDNARNILYLQMSSLRSEDTAMYYCARDYYYGSSLYYGMDYWGQGTSVTVSS VL: DIQMTQSPSSMHASLGERVTITCKASQDINNYVSWFQQKPGKSPKTLIYRANRLVDGVPSRFSGSGSGQDYSFTISSLEYEDMGIYYCLQFDEFPYTFGGGTKLEIKR | 1.34 | 0.000422 | 314000 | 0.00371 | no binding (tested: 1 µg/mL) | ~0.03 | ~0.02 | ~0.1 | –
6 | C42 (chimeric antibody) (antibody, human IgG1, kappa, V domains shown, ExpiCHO expression) VH: EVMLVESGGGLVKPGGSLKLSCAASGFTFSNYIMSWVRQTPEKRLEWVATINSGGTNTYYPDSVKGRFTISRDNAKNSLYLQMNSLRSEDTALYYCTRYNGNYVWFAYWGQGTLVTVSA VL: DIVLTQSPAIMSASPGEKVTMTCSASSSVSFIYWYQQKPGSSPRLLIYDTSNLASGVPVRFSGSGSGTSYSLTISRMEAEDAATYYCQQWSNYHFTFGSGTKLEIKR | 29.6 | 0.00325 | 110000 | 0.00203 | no binding (tested: 1 µg/mL) | – | ~0.03 | ~0.2 | binds
7 | C77 (chimeric antibody) (antibody, human IgG1, kappa, V domains shown, ExpiCHO expression) VH: EVKLVESGGGLVKPGGSLKLSCAASGFSFSNYAMSWVRQTPEKRLEWVASINSGVTTYYPDSVKGRFTVSRDNARNILYLHMTGLRSEDTAIYYCSRGYYYGGSPYWHFDVWGAGTTVTVSS VL: DIQMTQSPSSMHASLGERVTITCKASQDINNYVSWFQQKPGKSPKTLIYRANRLVDGVPSRFSGSGSGQDYSFTISSLEYEDMGIYYCLQFDEFPYTFGGGTKLEIKR | 2.47 | 0.000774 | 314000 | 0.00603 | no binding (tested: 1 µg/mL) | – | ~0.02 | ~0.1 | no binding (tested: 1 µg/mL)
8 | M71 (chimeric antibody) (antibody, human IgG1, kappa, V domains shown, ExpiCHO expression) VH: EVMLVESGGGLVKPGGSLKLSCAASGFTFSRYAMSWVRQTPEKRLEWVASINRGGTTYYPDSVKGRFTISRDNARDILYLQMSSLRSEDTAIYYCARDYYYGSSLYNGMDFWGQGTSVIVSS VL: DIQMTQSPSSMYASLGERVTITCKASQDINSYLSWFQQKPGKSPKTLIYRANRLVDGVPSRFSGSGSGQDYSLTISSLESEDMGIYYCLQFDEFPYTFGGGTKLEIKR | 1.54 | 0.00054 | 351000 | 0.0077 | no binding (tested: 1 µg/mL) | – | ~0.01 | ~0.08 | no binding (tested: 1 µg/mL)
9 | M78 (chimeric antibody) (antibody, human IgG1, kappa, V domains shown, ExpiCHO expression) VH: EVMLVESGGGLVRPGGSLKLSCAASGFTFSSYAMSWVRQSPEKRLEWVASINRGGTTYYPDSVKGRFTISRDNARDILYLQMSSLRSEDTAIYYCARDYYYGSNLYNGMDYWGQGTSVIVSS VL: DIKITQSPSSMYASLGERVTITCKASQDINSYLSWFQQKPGKSPKTLIYRANRLVDGVPSRFSGSGSGQDYSLTISSLEYEDMGIYYCLQFDEFPYTFGGGTKLEIKR | 1.86 | 0.000614 | 330000 | 0.00212 | no binding (tested: 1 µg/mL) | – | ~0.02 | ~0.1 | no binding (tested: 1 µg/mL)
